Data from the nanobody polyreactivity screen of Harvey et al. (2022).

Assay: yeast display, Sf9 membrane polyspecificity reagent, FACS + sequencing; frameworks hold sequencing errors
Outline: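 Sorting gates, low and high (top ~1%), were placed on anti-HA fluorescence to track expression and on streptavidin fluorescence to track reagent binding. A clone's polyreactivity label is taken from the gate it came out of. The reagent was 10% biotinylated, detergent-solubilized Sf9 membrane, applied for 1 hour at 4 °C to galactose-induced yeast display cells.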

| Sequence | polyreactivity (PSR sort gate) |
| --- | --- |
| QVQLVESGGGLVQAGGSLRLSCAASGFIFDSYAMGWYRQAPGKERELVAAISWSGGRTYYADSVKWRFTISRDNAKNTVYLQMNSLKPEDTAVYYCNVRTKLSTSYDYWGQGTQVTVSS | high polyreactivity |
| QVQLVESGGGLVQAGGSLRLSCAASGFIFDSYAMGWYRQAPGKVRELVATISRRGSSTYYADSVKGRFTISRDNAKNTVYLQMNSLKPEDNAVYYCAAGSISYYYKLYWGGYWGQGTQVTVSS | high polyreactivity |
| QVQLVESGGGLVQAGGSLRLSCAASGFIFDYNAMGWYRQAPGKERELVAAIDITGGSTYYADSVKGRFTISRDNAKNTVYLQMNSLKPEDTAVYYCNRPYYIWVYSGYSGYDYWGQGTQVTVSS | low polyreactivity |
| QVQLVESGGGLVQAGGSLRLSCAASGFIFDYNAMGWYRQAPGKERELVAAISISGGGTYYADSVKGRFTISRDNAKNTVYLQMNSLKPEDTAVYYCATAGRYDAYDYWGQGTQVTVSS | low polyreactivity |
| QVQLVESGGGLVQAGGSLRLSCAASGFIFDYYAMGWYRQAPGKERELVAAISRGGSTYYADSVKGRFTISRDNAKNTVYLQMKSLKPEDTAVYYCKAMSYHFWEFDYWGQGTQVTVSS | high polyreactivity |
| QVQLVESGGGLVQAGGSLRLSCAASGFIFDYYAMGWYRQAPGKERELVAAITSRGGSTYYADSVKGRFTISRDNAKNTVYLQMNSLKPEDTAVYYCAARRRYAEYNYWGQGTQVTVSS | high polyreactivity |
| QVQLVESGGGLVQAGGSLRLSCAASGFIFDYYAMGWYRQAPGKERELVAGISNGDTTYYADSVKGRFTISRDNAKNTVYLQMNSLKPEDTAVYYCNAKPFYWVLGGYDYWGQGTQVTVSS | low polyreactivity |
| QVQLVESGGGLVQAGGSLRLSCAASGFIFDYYAMGWYRQAPGKERELVAGISWSGGSTYYADSVKGRFTISRDNAKNTVYLQMNSLKPEDTAVYYCNAEYSVPFYLYYYWGQGTQVTVSS | low polyreactivity |
| QVQLVESGGGLVQAGGSLRLSCAASGFIFDYYAMGWYRQAPGKERELVATISSSGGSTYYADSVKGRFTISRDNAKNTVYLQMNSLKPEDTAVYYCATGYTWVADSWEYYYWGQGTQVTVSS | low polyreactivity |
| QVQLVESGGGLVQAGGSLRLSCAASGFIFETNAMGWYRQAPGKERELVAAISSRGGSTYYADSVKGRFTISRDNAKNTVYLQMNSLKPEDTAVYYCAAKLVVSYGQEYDYWGQGTHVTVSS | low polyreactivity |
| QVQLVESGGGLVQAGGSLRLSCAASGFIFEWNGMGWYRQAPGKERELVAAITWSGGSTYYADSVKGRFTISRDNAKNTVYLQMISLKPEDTAVYYCAADFPEYYLPYDNWGQGTQVTVSS | low polyreactivity |
| QVQLVESGGGLVQAGGSLRLSCAASGFIFFAYAMGWYRQAPGKERELVAAISRTGGSTYYADSVKGRFTISRDNAKNTVYLEMNSLKPEDTAVYYCAAVVSRTYQWWTYDYWGQGTQVTVSS | high polyreactivity |
| QVQLVESGGGLVQAGGSLRLSCAASGFIFFAYAMGWYRQAPGKERELVAAISSSGTRTYYADSVKGRFTISRDNAKNTVYLQMNSLKPEDTAVYYCARYIPVYTREREYNYWGQGTQVTVSS | high polyreactivity |
| QVQLVESGGGLVQAGGSLRLSCAASGFIFFGEYVMGWYRQAPGKERELVAAITWSGGSTSYADSVKGRFTISRDNAKNTVYLQMNSLKPEDTAVYYCNAVSHFSTAIEFDYWGQGTQVTVSS | low polyreactivity |
| QVQLVESGGGLVQAGGSLRLSCAASGFIFFGEYVRGWYRQAPRKEREFVAAITDSDGSTYYADSVKGRFTISRDNAKNTVYLQMNSLKPEDTAVYYCAAERVYSDIDYWGKGTQVTVSS | low polyreactivity |
| QVQLVESGGGLVQAGGSLRLSCAASGFIFFGYAMGWYRQAPGKERELVAAITSGGSTYYADSVKGRFTISRDNAKNTVYLQMNSLKPEDTAVYYCAAVRWYGSKRYGYWGQGTQVTVSS | high polyreactivity |
| QVQLVESGGGLVQAGGSLRLSCAASGFIFFINDMGWYRQAPGKERELVAAISWSGGSTYYADSVKGRFTISRDNAKNTVYLQMNSLKPEDTAVYYCAADWLIYDLSRFDYWGQGTQVTVSS | low polyreactivity |
| QVQLVESGGGLVQAGGSLRLSCAASGFIFFPYTMGWYRQAPGKERELVAAITNGGSTSYADSVKGRFTISRDNAKNTVYLQMNSLKPEDTAVYYCAADLGRNLLHTFYYWGQGTQVTVSS | low polyreactivity |
| QVQLVESGGGLVQAGGSLRLSCAASGFIFFVNAMGWYRQAPGKEREFVATITGSGGSTYYADSVKGRFTISRDNAKNTVYLQMYSLKPEDTAVYYCNAETYIDLRGKFPVEYDYWGQGTQVTVSS | low polyreactivity |
| QVQLVESGGGLVQAGGSLRLSCAASGFIFGANAMGWYRPAPGKERELVAAITWSAGRTYYADSVKGRFTISRVNAKNTVYLKMNSLKREDSAVYYCAKQRARQSPEVGYWGQGTQVTVSS | high polyreactivity |
| QVQLVESGGGLVQAGGSLRLSCAASGFIFGAYSMGWYRQAPGKERELVADITQNSGSTYYADSVKGRFTISRDNAKNTVYLQMNSLKPEDTAVYYCNAPPGTFQWQGHSDYWGQGTQVTVSS | low polyreactivity |
| QVQLVESGGGLVQAGGSLRLSCAASGFIFGDYAMGWYRQAPGKERELVAAINYSGGSTYYADSVKGRFTISRDNAKNTGYLQMNSLKPEDTAVYYCAALIYGLVGWGQGTQVTVSS | low polyreactivity |

| Sequence | polyreactivity (PSR sort gate) |
| --- | --- |
| QVQLVESGGGLVQAGGSLRLSCAASGFIFGFYAMGWYIQAPGKERELVAAISGGGGRTNYADSVKGRFTISRDYAKNTVYLQMNSLNPEDTAVYYCAATPGRRRYRYYYWGQGTQVTVSS | high polyreactivity |
| QVQLVESGGGLVQAGGSLRLSCAASGFIFGFYAMGWYRQAPGKERELVAAISWSGGSTYYADSVKGRFTISRDNAKNTVYLQMNSLKPEDTAGYYCAAYFYYLDDAVTYDYWGQGTQVTVSS | low polyreactivity |
| QVQLVESGGGLVQAGGSLRLSCAASGFIFGGYAMGWYRQAPGKEREFVAAIRQRGGSTYYADSVKGRFTISRDNAKNTVYLQMNSLKPEDTAVYFCAATVRAVQASVRYGYWGQGTQVTVSS | high polyreactivity |
| QVQLVESGGGLVQAGGSLRLSCAASGFIFGGYAMGWYRQAPGKERELVAAISSSGGSTYYADSVKGRFTISRDNAKNTVYLQMNSLKPEDTAVYYCAKVGWSRRYYYWGQGTQVTVSS | high polyreactivity |
| QVQLVESGGGLVQAGGSLRLSCAASGFIFGGYAMGWYRQAPGKERELVAAITWSGGNTYYADSVKGRFTISRDNAKNTVYLQMNSLKPEDTAVYYCAADYWTKYGYWGQGTQVTVSS | low polyreactivity |
| QVQLVESGGGLVQAGGSLRLSCAASGFIFGKNDMGWYRQAPGKERELVAAITIGGSTNYADSVKGRFTISRDNAKNTVYLQMNSLTPEDTAVYYCGADATSLYNYWGLGTQVTVSS | low polyreactivity |
| QVQLVESGGGLVQAGGSLRLSCAASGFIFGLYAMGWYRQAPGKEREFVAAISWSGGSTYYADSVKGRFTISRDNAKNTVYLQMNSLKPEDTAVYYCAREYHGDSRRYDYWGQGTQVTVSS | high polyreactivity |
| QVQLVESGGGLVQAGGSLRLSCAASGFIFGNYAMGWYRQAAGNERELVAAISQRGGTTYYADSVKGRFTISRDNAKNTVYLQMNSLKPEDTAVYYCKAYYIGYYVDYEYWGQGTQVTVSS | high polyreactivity |
| QVQLVESGGGLVQAGGSLRLSCAASGFIFGPYAMGWYRQAPGKERELVAAISRRGGSTYYADSVKGRFTISRDNAKNTVYLHMNSLKPEDTAVYYCATAGWGEAEGGYWGQGTQVTVSS | high polyreactivity |
| QVQLVESGGGLVQAGGSLRLSCAASGFIFGRNTMGWYIQAPGKERELVAAITSGGSTNYADSVKGRFTISRDNAKNTVYLQMNSLKPEDTAVYYCAAEVSTYWTLYDYWGQGTQVTVSS | high polyreactivity |
| QVQLVESGGGLVQAGGSLRLSCAASGFIFGRYAMGWYRQAPGKERELVAAISRSGARTYYADSVKGRFTISRDNAKNTVYLQMNSLKPEDTAVYYCARYQPRVSFDYWGQGTQVTVSS | high polyreactivity |
| QVQLVESGGGLVQAGGSLRLSCAASGFIFGSNAMGWYRQAPGQERELVAAIDSSGGRTNYADSVKGRFTISRDNAKNTVYLQMNSLKPEDTAVYYCNVYRWSQLFEYDYWGQGTQVTVSS | high polyreactivity |
| QVQLVESGGGLVQAGGSLRLSCAASGFIFGSNVMGWYRQAPGKERELVAAISRSGGSTYYADSVKGRFTISRDNAKNTVYLQMNSLKPEDTAVYYCNKLAVGRSRTGDYWGQGTQVTVSS | high polyreactivity |
| QVQLVESGGGLVQAGGSLRLSCAASGFIFGSYAMGWYRQAPGKERELVAAITSDGNTDYADSVKGRFTISRDNAKNTVYLQMNSLKPEDTAVYYCATDWVDHYDYWGQGTQVTVSS | low polyreactivity |
| QVQLVESGGGLVQAGGSLRLSCAASGFIFGSYAMGWYRQAPGNERELVAAISDSGDSTYYADSVKGRFTISRDNAKNTVSLQLTRLKPEDTAVYYCNRGYRWRRYENYYWGQVTQVTVSS | high polyreactivity |
| QVQLVESGGGLVQAGGSLRLSCAASGFIFGTYAMGWYRQAPGKERELVAAISQSGGRTYYADSVKGRFTISRDNAKNTVYLQMNSLKPEDTAVYYCAAYRYVRYDYWGQGTQVTVSS | high polyreactivity |
| QVQLVESGGGLVQAGGSLRLSCAASGFIFGVYAMGWYRQAPGKERELVAAISRSGGSTYYADSVKGRFTISRDNAKNTVYLQMNSLKPEDTAVYYCAVRGSWYSEHNYWGQGTQVTVSS | high polyreactivity |
| QVQLVESGGGLVQAGGSLRLSCAASGFIFGYNAMGWYRQAPGKERELLAAITWIGGTTYYADSVKGRFTISRDNAKNTVYLQMNSLNPEDTAVYYCARQRSYGRYSYSYVYEYWGQGTLVTVSS | high polyreactivity |
| QVQLVESGGGLVQAGGSLRLSCAASGFIFGYNAMGWYRQAPGKERELVAAISYSGVSTYYADSVKGRFTISRDNAKNTVYLQMNSLKPEDTAVYYCAARPIGYKPRGEYDYWGQGTQVTVSS | high polyreactivity |
| QVQLVESGGGLVQAGGSLRLSCAASGFIFGYNAMGWYRQAPGKERELVAAITSRGDRTYYADSVKGRFTISRDNAKNTVYLQMNSLKPEDTAVYYCAKATRGYRSPYGSIGYYYWGQGTQVTVSS | high polyreactivity |
| QVQLVESGGGLVQAGGSLRLSCAASGFIFGYNAMGWYRQAPGKERELVATISWSGGSTYYADSVKGRFTISRDNAKNTVYFQMNSLKPEDTAVYYCAAEGWERLGCVSWVTVDYWGQGTQVTVSS | low polyreactivity |
